In patent US20230406950A1 (LYVGEN BIOPHARMA, published 2023):

T1: human GITR expressed on cells (human, UniProt Q9Y5U5 26-241)
T1 construct: whole, on cells; also called TNFRSF18; CD357
T1 sequence (looked up): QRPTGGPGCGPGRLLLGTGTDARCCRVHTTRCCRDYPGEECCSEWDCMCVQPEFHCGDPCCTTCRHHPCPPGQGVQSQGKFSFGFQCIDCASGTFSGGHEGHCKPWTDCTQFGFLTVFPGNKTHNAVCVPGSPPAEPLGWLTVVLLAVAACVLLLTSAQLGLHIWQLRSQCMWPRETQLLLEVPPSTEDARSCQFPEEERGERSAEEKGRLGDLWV


Columns and labels:
[1] = molecular target: T2, human CD137 expressed on cells (human, UniProt Q07011 24-255); experiment: FACS on CHO cells expressing human CD137 (MFI)
T2 construct: whole, on cells; also called 4-1BB; TNFRSF9
T2 sequence (Q07011 24-255): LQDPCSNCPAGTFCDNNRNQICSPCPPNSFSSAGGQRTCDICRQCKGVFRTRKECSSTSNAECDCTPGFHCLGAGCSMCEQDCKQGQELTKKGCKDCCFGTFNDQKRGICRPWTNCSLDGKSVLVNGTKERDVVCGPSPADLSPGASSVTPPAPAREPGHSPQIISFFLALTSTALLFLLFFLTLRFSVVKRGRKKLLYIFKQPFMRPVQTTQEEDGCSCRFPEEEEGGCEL
Procedure: (§1) Anti-GITR/CD137 bi-specific antibodies were analyzed by FACS for their binding properties to human GITR and/or human CD137 expressed on CHO cells. Briefly, cultured cells were harvested, counted and cell viability was evaluated using the Trypan Blue exclusion method. Viable cells were then adjusted to 2×10⁶ cells per mL in PBS containing 2% BSA. 100 μL of this cell suspension were further aliquoted per well into a V-bottom 96-well plate. […] After incubation for 2 hours at 4° C., cells were centrifuged (3 min, 1000× g), washed with 250 μL/well BSA-containing FACS Stain Buffer, resuspended and incubated for an additional 1 hour at 4° C. with 100 μL/well fluorochrome-conjugated anti-IgG antibody for detection of the bisepecific antibody. Cells were then washed with 250 μL/well BSA-containing FACS Stain Buffer, resuspended in 100 μL/well FACS Stain Buffer, acquired and analyzed using a FACS machine. Binding of the bispecific antibodies to human GITR or human CD137 expressing CHO cells were evaluated and the mean fluorescence intensity is plotted in histograms or dot plots.

[2] = molecular target: T1, human GITR expressed on cells; experiment: flow cytometry (FACS), MFI, CHO cells expressing human GITR
Procedure: as §1

EC50 (read off the curve) [1] [µg/mL]	binding result [2]	EC50 (read off the curve) [2] [µg/mL]	Binder
~0.2			Ly754 (bispecific antibody, human IgG1, kappa, Anti-GITR/CD137: Ly1630 heavy chain fused to TM685 scFv (VL-VH); Ly1630 light chain) heavy: QVQLVQSGAEVKKPGASVKVSCKASGYTFAGFEMHWVRQAPGQGLEWMGAIDPKTGGTDYNQKFKDRVTMTRDTSISTAYMELSRLRSDDTAVYYCARDLGYFDVWGQGTLVTVSSASTKGPSVFPLAPSSKSTSGGTAALGCLVKDYFPEPVTVSWNSGALTSGVHTFPAVLQSSGLYSLSSVVTVPSSSLGTQTYICNVNHKPSNTKVDKKVEPKSCDKTHTCPPCPAPELLGPSVFLFPPKPKDTLMISRTPEVTCVVVDVSHEDPEVKFNWYVDGVEVHNAKTKPREEQYNSTYRVVSVLTVLHQDWLNGKEYKCKVSNKALPAPIEKTISKAKGQPREPQVYTLPPSREEMTKNQVSLTCLVKGFYPSDIAVEWESNGQPENNYKTTPPVLDSDGSFFLYSKLTVDKSRWQQGNVFSCSVMHEALHNHYTQKSLSLSPGGGGGSGGGGSGGGGSGGGGSEIVLTQSPATLSLSPGERATLSCRASKSVRTGMHWYQQKPGQAPRLLIYGASNLESGIPARFSGSGSGTDFTLTISSLEPEDFAVYYCQQSWNHFTFGQGTKLEIKGGGGSGGGGSGGGGSGGGGSQVQLQESGPGLVKPSETLSLTCTVSGFSLTSYNVHWIRQPPGKGLEWIGVIWSGVRTDYNSVLKPRVTISVDTSKNQFSLKLSSVTAADTAVYYCARGTYDDNYHDVMDAWGQGTLVTVSS light: DIQMTQSPSSLSASVGDRVTITCRASQDIRSNLNWYQQKPGGAVKLLIYYTSRLHSGVPSRFSGSGSGTDYTLTISSLQPEDFATYFCQQSEKLPRTFGGGTKVEIRRTVAAPSVFIFPPSDEQLKSGTASVVCLLNNFYPREAKVQWKVDNALQSGNSQESVTEQDSKDSTYSLSSTLTLSKADYEKHKVYACEVTHQGLSSPVTKSFNRGEC
~0.2	binds		Ly750 (bispecific antibody, human IgG1, kappa, Anti-GITR/CD137: TM677 heavy chain fused to Ly1630 scFv (VL-VH)) heavy: QVQLQESGPGLVKPSETLSLTCTVSGFSLTSYNVHWIRQPPGKGLEWIGVIWSGVRTDYNSVLKSRVTISVDTSKNQFSLKLSSVTAADTAVYYCARGTYDANYHDVMDAWGQGTMVTVSSASTKGPSVFPLAPSSKSTSGGTAALGCLVKDYFPEPVTVSWNSGALTSGVHTFPAVLQSSGLYSLSSVVTVPSSSLGTQTYICNVNHKPSNTKVDKKVEPKSCDKTHTCPPCPAPELLGPSVFLFPPKPKDTLMISRTPEVTCVVVDVSHEDPEVKFNWYVDGVEVHNAKTKPREEQYNSTYRVVSVLTVLHQDWLNGKEYKCKVSNKALPAPIEKTISKAKGQPREPQVYTLPPSREEMTKNQVSLTCLVKGFYPSDIAVEWESNGQPENNYKTTPPVLDSDGSFFLYSKLTVDKSRWQQGNVFSCSVMHEALHNHYTQKSLSLSPGGGGGSGGGGSGGGGSGGGGSDIQMTQSPSSLSASVGDRVTITCRASQDIRSNLNWYQQKPGGAVKLLIYYTSRLHSGVPSRFSGSGSGTDYTLTISSLQPEDFATYFCQQSEKLPRTFGGGTKVEIRGGGGSGGGGSGGGGSGGGGSQVQLVQSGAEVKKPGASVKVSCKASGYTFAGFEMHWVRQAPGQGLEWMGAIDPKTGGTDYNQKFKDRVTMTRDTSISTAYMELSRLRSDDTAVYYCARDLGYFDVWGQGTLVTVSS light: DTVLTQSPATLSLSPGERATLSCRASKSVRTGMHWYQQKPGQAPRLLVYGASNLESGIPARFSGSGSGTDFTLTISSLEPEDFATYFCHQSWNHFTFGQGTKLEIKRTVAAPSVFIFPPSDEQLKSGTASVVCLLNNFYPREAKVQWKVDNALQSGNSQESVTEQDSKDSTYSLSSTLTLSKADYEKHKVYACEVTHQGLSSPVTKSFNRGEC
~0.2	binds		Ly751 (bispecific antibody, human IgG1, kappa, Anti-GITR/CD137: TM677 heavy chain fused to Ly1630 scFv (VH-VL); TM677 light chain) heavy: QVQLQESGPGLVKPSETLSLTCTVSGFSLTSYNVHWIRQPPGKGLEWIGVIWSGVRTDYNSVLKSRVTISVDTSKNQFSLKLSSVTAADTAVYYCARGTYDANYHDVMDAWGQGTMVTVSSASTKGPSVFPLAPSSKSTSGGTAALGCLVKDYFPEPVTVSWNSGALTSGVHTFPAVLQSSGLYSLSSVVTVPSSSLGTQTYICNVNHKPSNTKVDKKVEPKSCDKTHTCPPCPAPELLGPSVFLFPPKPKDTLMISRTPEVTCVVVDVSHEDPEVKFNWYVDGVEVHNAKTKPREEQYNSTYRVVSVLTVLHQDWLNGKEYKCKVSNKALPAPIEKTISKAKGQPREPQVYTLPPSREEMTKNQVSLTCLVKGFYPSDIAVEWESNGQPENNYKTTPPVLDSDGSFFLYSKLTVDKSRWQQGNVFSCSVMHEALHNHYTQKSLSLSPGGGGGSGGGGSGGGGSGGGGSQVQLVQSGAEVKKPGASVKVSCKASGYTFAGFEMHWVRQAPGQGLEWMGAIDPKTGGTDYNQKFKDRVTMTRDTSISTAYMELSRLRSDDTAVYYCARDLGYFDVWGQGTLVTVSSGGGGSGGGGSGGGGSGGGGSDIQMTQSPSSLSASVGDRVTITCRASQDIRSNLNWYQQKPGGAVKLLIYYTSRLHSGVPSRFSGSGSGTDYTLTISSLQPEDFATYFCQQSEKLPRTFGGGTKVEIR light: DTVLTQSPATLSLSPGERATLSCRASKSVRTGMHWYQQKPGQAPRLLVYGASNLESGIPARFSGSGSGTDFTLTISSLEPEDFATYFCHQSWNHFTFGQGTKLEIKRTVAAPSVFIFPPSDEQLKSGTASVVCLLNNFYPREAKVQWKVDNALQSGNSQESVTEQDSKDSTYSLSSTLTLSKADYEKHKVYACEVTHQGLSSPVTKSFNRGEC
	binds		Ly748 (bispecific antibody, human IgG1, kappa, Anti-GITR/CD137: Ly1630 heavy chain; Ly1630 light chain fused to TM677 scFv (VL-VH)) heavy: QVQLVQSGAEVKKPGASVKVSCKASGYTFAGFEMHWVRQAPGQGLEWMGAIDPKTGGTDYNQKFKDRVTMTRDTSISTAYMELSRLRSDDTAVYYCARDLGYFDVWGQGTLVTVSSASTKGPSVFPLAPSSKSTSGGTAALGCLVKDYFPEPVTVSWNSGALTSGVHTFPAVLQSSGLYSLSSVVTVPSSSLGTQTYICNVNHKPSNTKVDKKVEPKSCDKTHTCPPCPAPELLGPSVFLFPPKPKDTLMISRTPEVTCVVVDVSHEDPEVKFNWYVDGVEVHNAKTKPREEQYNSTYRVVSVLTVLHQDWLNGKEYKCKVSNKALPAPIEKTISKAKGQPREPQVYTLPPSREEMTKNQVSLTCLVKGFYPSDIAVEWESNGQPENNYKTTPPVLDSDGSFFLYSKLTVDKSRWQQGNVFSCSVMHEALHNHYTQKSLSLSPGK light: DIQMTQSPSSLSASVGDRVTITCRASQDIRSNLNWYQQKPGGAVKLLIYYTSRLHSGVPSRFSGSGSGTDYTLTISSLQPEDFATYFCQQSEKLPRTFGGGTKVEIRRTVAAPSVFIFPPSDEQLKSGTASVVCLLNNFYPREAKVQWKVDNALQSGNSQESVTEQDSKDSTYSLSSTLTLSKADYEKHKVYACEVTHQGLSSPVTKSFNRGECGGGGSGGGGSGGGGSGGGGSDTVLTQSPATLSLSPGERATLSCRASKSVRTGMHWYQQKPGQAPRLLVYGASNLESGIPARFSGSGSGTDFTLTISSLEPEDFATYFCHQSWNHFTFGQGTKLEIKGGGGSGGGGSGGGGSGGGGSQVQLQESGPGLVKPSETLSLTCTVSGFSLTSYNVHWIRQPPGKGLEWIGVIWSGVRTDYNSVLKSRVTISVDTSKNQFSLKLSSVTAADTAVYYCARGTYDANYHDVMDAWGQGTMVTVSS
		~0.7	TM677 (antibody, human IgG1, kappa, V domains shown, Humanized anti-GITR antibody with VL back mutations; also called humanized LYV392 antibody (VH-1/IgG1 mut, VL-2/kappa)) VH: QVQLQESGPGLVKPSETLSLTCTVSGFSLTSYNVHWIRQPPGKGLEWIGVIWSGVRTDYNSVLKSRVTISVDTSKNQFSLKLSSVTAADTAVYYCARGTYDANYHDVMDAWGQGTMVTVSS VL: DTVLTQSPATLSLSPGERATLSCRASKSVRTGMHWYQQKPGQAPRLLVYGASNLESGIPARFSGSGSGTDFTLTISSLEPEDFATYFCHQSWNHFTFGQGTKLEIKR
		~0.7	TM685 (antibody, human IgG1, kappa, V domains shown, Humanized anti-GITR antibody; also called humanized LYV396 antibody (LYV396_VH-1/IgG1mut, LYV396_VL-1/kappa)) VH: QVQLQESGPGLVKPSETLSLTCTVSGFSLTSYNVHWIRQPPGKGLEWIGVIWSGVRTDYNSVLKPRVTISVDTSKNQFSLKLSSVTAADTAVYYCARGTYDDNYHDVMDAWGQGTLVTVSS VL: EIVLTQSPATLSLSPGERATLSCRASKSVRTGMHWYQQKPGQAPRLLIYGASNLESGIPARFSGSGSGTDFTLTISSLEPEDFAVYYCQQSWNHFTFGQGTKLEIKR
